Values quoted from earlier work as cited in US7235522B2, “Use of microparticles having a protein and an antibody adsorbed thereon for preparing a pharmaceutical composition for intranasal administration” (priority 1997, dated 2007).

Conditions: in vivo

Substance: insulin [insulin (51 AA)]
- absorption of proteins administered by nasal route: almost zero
